Several values for one entry are separate records, joined by “and”; a condition that tells them apart may be missing. Equal values may be shown once.

The target of one data set is p53 (94-393) WT, thermostable deltaN (Homo sapiens) (UniProt P04637). The data set can be described thus: fluorescence polarization. Conditions: FP at 25 °C, 2.5 nM FAM-dsDNA, 200 or 275 mM NaCl, 20 mM bis-tris propane pH 6.8, 5% glycerol, 0.1 mg/ml BSA, 0.5 mM TCEP, 10 min; mean of n = 2. In general terms: Polarisation of emitted light reports the rotation of a fluorescent probe.
p53 (94-393) WT, thermostable deltaN (Homo sapiens), sequence (P04637 94-393, stated change not applied): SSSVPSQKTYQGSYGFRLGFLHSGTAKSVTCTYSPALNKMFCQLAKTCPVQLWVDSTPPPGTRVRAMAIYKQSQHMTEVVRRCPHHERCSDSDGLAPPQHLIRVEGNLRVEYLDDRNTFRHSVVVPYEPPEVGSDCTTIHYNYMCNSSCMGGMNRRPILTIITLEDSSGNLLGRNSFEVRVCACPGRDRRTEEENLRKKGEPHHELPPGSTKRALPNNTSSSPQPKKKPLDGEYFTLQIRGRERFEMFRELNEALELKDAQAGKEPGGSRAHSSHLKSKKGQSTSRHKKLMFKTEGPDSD
Usually Kd stands for the constant that tells how readily two partners part at equilibrium. As to “ATGATGATAGACAAGTCAGGACTTAACTATATGATG (double strand) [MDM2 RE]”, the Kd is 20 nM and 97 nM.
For “ATGATGATAGGCATGTCCCAACATGCCCATATGATG (double strand) [APBB2 RE]”, the Kd was 10 nM and 40 nM.
As for “ATGATGATGAACATGCCCCAGCATGTTGATATGATG (double strand) [p21_8/13]”, the Kd is 33 nM and 99 nM.
Consider “ATGATGATGAACATGTCCCAACATGTTGATATGATG (double strand) [p21 RE]”, for which the Kd was 26 nM and 23 nM.
On the same count and under the same terms, as for “ATGATGATGAACGTGTCCGGACAGGTCGATATGATG (double strand) [NOXA_3/13]”, the figure is 23 nM and 60 nM.
Consider “ATGATGATGAGCGTGTCCGGGCAGGTCGATATGATG (double strand) [NOXA RE]”, for which the dissociation constant (Kd) was 45 nM and 446 nM.
The same measure, in the same setting: as for “ATGATGATGGGCAGGTCCGGACTTGTCGATATGATG (double strand) [BAX_8/13]”, the figure is 8 nM and 40 nM; as for “ATGATGATGGGCATGTCTGGGCATGTCTATATGATG (double strand) [3Q05 pdb RE]”, 6 nM.

Still in this data set, the particulars now being: inosine (written as G): strand 1 nt 21 (RE position 13); strand 2 nt 21 (opposite RE position 8); FP at 25 °C, 2.5 nM FAM-dsDNA, 200 or 275 mM NaCl, 20 mM bis-tris propane pH 6.8, 5% glycerol, 0.1 mg/ml BSA, 0.5 mM TCEP, 10 min; mean of n = 2.
“ATGATGATGGGCAGGCCCGGGCTTGTCGATATGATG (double strand) [BAX_8/13 I/C]”: the Kd was 9 nM and 83 nM.

Still in this data set, the particulars now being: inosine (written as G): strand 2 nt 21 and 11 (opposite RE positions 8 and 18); supplement also prints I at strand 1 nt 21 (RE position 13), Table 1 prints G there; FP at 25 °C, 2.5 nM FAM-dsDNA, 200 or 275 mM NaCl, 20 mM bis-tris propane pH 6.8, 5% glycerol, 0.1 mg/ml BSA, 0.5 mM TCEP, 10 min; mean of n = 2.
On to “ATGATGATAGGCATGCCTAGGCATGCCTATATGATG (double strand) [6FJ5_8/18 I/C]”, for which the Kd is 8 nM and 58 nM.

These data come from publication PMC7817693.
